# B1: PLAGL1 (parent)
# chain: TKEKKHQCDHCERCFYTRKDVRRH
# B2: ZBED1 (parent)
# chain: EQVFSLGDGVSGGFFGIRDSSFL
# Variants of: B1
# Experiment: protein stability index of a GFP-peptide fusion (GPS, HEK-293T) (PSI 1-6); higher = more stable
# Conditions: c terminus: a fixed tail appended
# 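Also: lentivirally expressed fusions sorted by FACS into six bins by GFP to DsRed ratio, PSI derived from sequencing read proportions per bin multiplied by bin number.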
row,Variant,protein stability index
1,Y16E,4.19
2,Y16S,3.63
3,Y16F,3.58
4,Y16M,3.75
5,Y16Q,3.88
6,Y16G,3.79
7,Y16N,4.2
8,Y16D,4.12
9,Y16V,3.75
10,Y16C,3.74
11,Y16R,4
12,Y16P,3.13
13,Y16W,3.26
14,Y16K,3.14
15,Y16A,4.02
16,Y16L,3.4
17,Y16H,3.46
18,Y16T,3.58
19,Y16I,3.18
20,V21C,3.85
21,V21S,3.01
22,V21Y,3.98
23,V21H,3.7
24,V21W,3.58
25,V21A,3.68

row,Variant,protein stability index
1,V21T,3.34
2,V21P,2.97
3,V21I,3.25
4,V21M,3.52
5,V21G,3.65
6,V21L,3.74
7,V21Q,3.25
8,V21E,3.9
9,V21D,3.53
10,V21N,3.54
11,V21F,3.47
12,V21R,3.95
13,V21K,3.88
14,C11E,4.31
15,C11D,3.96
16,C11F,3.27
17,C11G,3.61
18,C11H,3.31
19,C11A,3.62
20,C11M,3.57
21,C11V,3.73
22,C11Q,3.91
23,C11S,3.42
24,C11T,3.24
25,C11I,3.65

row,Variant,protein stability index
1,C11Y,3.22
2,C11N,3.39
3,C11L,3.71
4,C11R,4.11
5,C11K,3.86
6,C11P,3.98
7,C11W,3.46
8,K19F,3.05
9,K19E,4.03
10,K19D,3.39
11,K19R,4.12
12,K19I,2.52
13,K19G,3.52
14,K19S,3.17
15,K19W,3.13
16,K19T,3.4
17,K19Q,3.89
18,K19Y,3.25
19,K19A,3.66
20,K19P,3.33
21,K19N,3.3
22,K19V,2.95
23,K19M,3.06
24,K19L,2.9
25,K19H,3.55

row,Variant,protein stability index
1,K19C,3.22
2,E12D,3.6
3,E12W,2.69
4,E12Y,3.3
5,E12V,3.24
6,E12Q,3.15
7,E12A,3.05
8,E12R,3.15
9,E12L,3
10,E12I,2.89
11,E12G,4.02
12,E12P,4.17
13,E12N,3.19
14,E12M,3.15
15,E12S,3.03
16,E12F,3.12
17,E12T,3.15
18,E12H,3.34
19,E12C,3.27
20,E12K,3.09
21,F15K,3.94
22,F15A,3.79
23,F15N,3.48
24,F15V,3.47
25,F15D,2.98

row,Variant,protein stability index
1,F15Y,3.48
2,F15G,2.83
3,F15W,3.41
4,F15R,3.77
5,F15S,3.05
6,F15M,4.05
7,F15H,3.46
8,F15Q,3.79
9,F15E,3.61
10,F15P,3.06
11,F15L,3.9
12,F15I,3.62
13,F15C,2.83
14,F15T,4.24
15,R18C,3.06
16,R18T,3.29
17,R18K,3.09
18,R18E,3.61
19,R18V,3.27
20,R18P,3.13
21,R18Y,3.2
22,R18A,3.54
23,R18Q,3.38
24,R18F,2.76
25,R18L,3.76

row,Variant,protein stability index
1,R18H,3.29
2,R18G,2.87
3,R18D,3.82
4,R18I,3.06
5,R18N,3.58
6,R18M,2.95
7,R18W,3.27
8,R18S,3.5
9,T17F,4.01
10,T17Y,3.09
11,T17K,3.4
12,T17M,3.26
13,T17N,3.7
14,T17V,3.22
15,T17Q,3.44
16,T17W,2.74
17,T17G,3.05
18,T17S,3.12
19,T17C,4.01
20,T17E,3.81
21,T17A,3.6
22,T17R,3.63
23,T17H,3.29
24,T17L,3.77
25,T17P,3.1

row,Variant,protein stability index
1,T17D,3.61
2,T17I,3.01
3,H24I,3.24
4,H24K,3.62
5,H24G,3.52
6,H24A,3.79
7,H24E,4.12
8,H24T,3.63
9,H24S,3.27
10,H24P,3.24
11,H24V,3.11
12,H24M,2.88
13,H24C,3.31
14,H24Y,2.79
15,H24N,2.89
16,H24R,3.37
17,H24Q,3.58
18,H24F,3.06
19,H24L,3.17
20,H24W,3.03
21,H24D,3.84
22,R13Q,4.24
23,R13M,3.26
24,R13K,3.54
25,R13N,3.81

row,Variant,protein stability index
1,R13V,3.41
2,R13T,3.06
3,R13E,3.66
4,R13L,3.27
5,R13C,3.39
6,R13G,3.25
7,R13W,2.61
8,R13S,3.35
9,R13D,3.79
10,R13A,3.77
11,R13F,3
12,R13P,2.75
13,R13H,3.87
14,R13I,2.62
15,R13Y,2.63
16,C14T,3.6
17,C14E,3.69
18,C14Q,3.41
19,C14S,3.28
20,C14V,3.42
21,C14Y,3.27
22,C14L,3.06
23,C14G,4.02
24,C14K,3.78
25,C14M,3.52

row,Variant,protein stability index
1,C14N,3.25
2,C14I,2.65
3,C14H,3.12
4,C14P,3.29
5,C14D,3.54
6,C14W,3.65
7,C14A,3.11
8,C14F,3.18
9,C14R,3.16
10,D20R,3.84
11,D20F,3.14
12,D20I,2.65
13,D20K,3.29
14,D20C,3.02
15,D20N,3.37
16,D20V,3.71
17,D20A,3.61
18,D20M,3.44
19,D20L,3.14
20,D20S,3.22
21,D20H,3.43
22,D20T,2.96
23,D20W,3.03
24,D20Y,3.28
25,D20E,3.96

row,Variant,protein stability index
1,D20Q,3.43
2,D20G,3.21
3,D20P,3.1
4,R22Y,3.69
5,R22L,3.84
6,R22A,3.54
7,R22G,3.61
8,R22D,4.31
9,R22K,3.76
10,R22T,4.04
11,R22H,3.96
12,R22V,3.76
13,R22F,3.51
14,R22E,4.73
15,R22P,3.62
16,R22N,4.04
17,R22I,3.48
18,R22W,3.27
19,R22C,4.07
20,R22M,3.65
21,R22Q,3.51
22,R22S,3.71
23,H10Y,2.46
24,H10W,2.67
25,R23H,3.85

row,Variant,protein stability index
1,R23Y,3.53
2,R23E,4.26
3,R23G,4.31
4,R23F,3.33
5,R23L,3.92
6,R23D,4.49
7,R23T,3.71
8,R23C,3.49
9,R23S,3.7
10,R23W,3.08
11,R23I,3.67
12,R23P,4.04
13,R23A,4.13
14,R23K,4.27
15,R23M,3.79
16,R23Q,3.84
17,R23N,4.01
18,R23V,3.08

# Variants of: B2
# Experiment: as above
# Conditions: c terminus: native
row,Variant,protein stability index
1,E1D,3.69
2,E1N,2.99
3,E1T,2.35
4,E1K,2.64
5,E1Q,2.77
6,E1S,2.83
7,E1W,1.62
8,E1Y,3.12
9,E1V,3.14
10,E1R,2.06
11,E1C,1.16
12,E1P,2.64
13,E1G,2.45
14,E1H,2.45
15,E1A,2.52
16,E1F,2.19
17,E1L,2.3
18,E1M,1.89
19,F4I,3.63
20,F4M,3.63
21,F4C,3.18
22,F4K,4.06

row,Variant,protein stability index
1,F4D,4.38
2,F4L,3.36
3,F4G,4.16
4,F4A,4.22
5,F4E,4.55
6,F4H,4.16
7,V3S,3.63
8,V3H,3.99
9,V3Y,3.01
10,V3F,2.52
11,V3Q,4.23
12,V3W,2.55
13,V3E,4.17
14,V3A,4.03
15,V3L,2.91
16,V3N,3.82
17,V3I,2.9
18,V3P,4.06
19,V3R,3.55
20,V3G,4.03
21,V3T,3.6
22,V3D,4.19

row,Variant,protein stability index
1,V3C,2.92
2,V3K,3.7
3,V3M,3.15
4,Q2D,3.7
5,Q2L,1.8
6,Q2I,1.84
7,Q2P,3.46
8,Q2Y,2.43
9,Q2A,2.44
10,Q2W,2.03
11,Q2F,1.72
12,Q2C,1.96
13,Q2M,1.65
14,Q2G,3.05
15,Q2V,2.17
16,Q2K,2.74
17,Q2T,3.04
18,Q2E,3.88
19,Q2S,3.44
20,Q2R,3
21,Q2N,2.98
22,Q2H,3.22
